The values that follow come from paper PMC7170481, “Inhibition of Ammonia Monooxygenase from Ammonia-Oxidizing Archaea by Linear and Aromatic Alkynes” (Applied and Environmental Microbiology, 2020).

Substrate in this data set: N
The data set can be described thus: cells, lysate or membranes. The following applies: intact cells, total NH3 + NH4+, 0.1% DMSO, no inhibitor, whole-cell nitrite read-out.

[1] abbreviates: 50 mM sodium phosphate pH 7.7, 2 mM MgCl2, 30°C, pH 7.7, 30.0 °C.
[2] abbreviates: 10 mM HEPES pH 7, 37°C, pH 7.0, 37.0 °C.

B1: AMO from Nitrosomonas europaea (Nitrosomonas europaea ATCC 19718) (protein)
chain 1: SIFRTEEILKAAKMPPEAVHMSRLIDAVYFPILIILLVGTYHMHFMLLAGDWDFWMDWKDRQWWPVVTPIVGITYCSAIMYYLWVNYRQPFGATLCVVCLLIGEWLTRYWGFYWWSHYPINFVTPGIMLPGALMLDFTLYLTRNWLVTALVGGGFFGLLFYPGNWPIFGPTHLPIVVEGTLLSMADYMGHLYVRTGTPEYVRHIEQGSLRTFGGHTTVIAAFFSAFVSMLMFTVWWYLGKVYCTAFFYVKGKRGRIVHRNDVTAFGEEGFPEGIK
chain 2: MTVTLDVSTVAAHGERSQEPFLRMRTVQWYDIKWGPEVTKVNENAKITGKFHLAEDWPRAAAQPDFSFFNVGSPSPVFVRLSTKINGHPWFISGPLQIGRDYEFEVNLRARIPGRHHMHAMLNVKDAGPIAGPGAWMNITGSWDDFTNPLKLLTGETIDSETFNLSNGIFWHVVWMSIGIFWIGVFTARPMFLPRSRVLLAYGDDLLMDPMDKKITWVLAILTLALVWGGYRYTENKHPYTVPIQAGQSKVAALPVAPNPVSIVITDANYDVPGRALRVTMEVTNNGDIPVTFGEFTTAGIRFINSTGRKYLDPQYPRELIAVGLNFDDESAIQPGQTKELKMEAKDALWEIQRLMALLGDPESRFGGLLMSWDAEGNRHINSIAGPVIPVFTKL
chain 3: MATTLGTSSASSVSSRGYDMSLWYDSKFYKFGMITMLLVAIFWVWYQRYFAYSHGMDSMEPEFDRVWMGLWRVHMAIMPLFALVTWGWILKTRDTKEQLDNLDPKLEIKRYFYYMMWLGVYIFGVYWGGSFFTEQDASWHQVIIRDTSFTPSHVVMFYGSFPMYIVCGVATYLYAMTRLPLFSRGISFPLVMAIAGPLMILPNVGLNEWGHAFWFMEELFSAPLHWGFVVLGWAGLFQGGVAAQIITRYSNLTDVVWNNQSKEILNNRIVA
For orientation: Vmax means the rate approached at saturating substrate. Consider B1, for which, under setting [1], the Km is listed as 520.3 (19.6) μM and the Vmax came out at 0.324 µmol/min/mg.

B2: AMO from "Ca. Nitrosocosmicus franklandus" C13 (Candidatus Nitrosocosmicus franklandianus) (protein)
chain 1: MVWLRRTTHYLFIVVVAVNSTLLTINAGDYIFYTDWAWTSFVVFSISQSTMLVVGAIYYMLFTGVPGTATYYATIMTIYTWVAKGAWFALGYPYDFVVVPVWIPSAMLLDLAYWATRRNKHAAILIGGVLVGMSLPLFNMINLLLVADPLEMAFKYPRPTLPPYMTPIEPQVGKFYNSPVALGAGAGAVLCVPIAALGAKLNTWTYRWMAAWSKWD
chain 2: MNEKSGNKPAMVFLIVTFVAGASILASIIALLPLADGHGVQAQLQSRFVRINNEAFSAQSLNTGDTLVVTGELQSLVNRPMRGWISLFSESTNAGNRWEFVSRDPPGNIIEIQPQETVPYRLEAKALEPGVYHVHTQLNLASVGPGLGPGQTIQVVGDPILKPIPWNNIIYQSIIIAAGLGVTFATRPWQVI
chain 3: MAQMPALIPKEVEIQRLKKIYLMVIMLGSIAASVEVDNFVDGSLHQTAIRDSAFTPAHWWLYSHFIALPLGWGFVAMYDRRVPVLRGPNNSMNTGLKITIIGYLATMFTIGINEMWHFWFVEEIFSVPNHWMFNMGVVVAFMGALAYVVRVYARLVELGAETPARNPYVAEMYKLALEGKLYSRSIP
With B2, under setting [2], the Km is 26.7 (4.7) μM and the Vmax worked out at 0.0641 µmol/min/mg.
